Results reported in IntAct's records for PubMed 17986188.

B1: Cell division protein FtsA (Escherichia coli (strain K12)), P0ABH0 (parent)
chain: MIKATDRKLVVGLEIGTAKVAALVGEVLPDGMVNIIGVGSCPSRGMDKGGVNDLESVVKCVQRAIDQAELMADCQISSVYLALSGKHISCQNEIGMVPISEEEVTQEDVENVVHTAKSVRVRDEHRVLHVIPQEYAIDYQEGIKNPVGLSGVRMQAKVHLITCHNDMAKNIVKAVERCGLKVDQLIFAGLASSYSVLTEDERELGVCVVDIGGGTMDIAVYTGGALRHTKVIPYAGNVVTSDIAYAFGTPPSDAEAIKVRHGCALGSIVGKDESVEVPSVGGRPPRSLQRQTLAEVIEPRYTELLNLVNEEILQLQEKLRQQGVKHHLAAGIVLTGGAAQIEGLAACAQRVFHTQVRIGAPLNITGLTDYAQEPYYSTAVGLLHYGKESHLNGEAEVEKRVTASVGSWIKRLNSWLRKEF
partner: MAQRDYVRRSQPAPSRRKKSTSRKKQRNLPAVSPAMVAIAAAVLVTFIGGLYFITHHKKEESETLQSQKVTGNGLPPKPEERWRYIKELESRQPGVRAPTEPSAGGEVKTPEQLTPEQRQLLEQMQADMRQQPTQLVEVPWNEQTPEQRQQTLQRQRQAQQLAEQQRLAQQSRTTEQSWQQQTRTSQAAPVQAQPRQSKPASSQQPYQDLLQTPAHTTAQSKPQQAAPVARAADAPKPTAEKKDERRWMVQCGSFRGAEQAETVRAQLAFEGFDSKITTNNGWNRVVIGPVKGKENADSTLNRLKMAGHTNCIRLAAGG
B2: Cell division protein FtsA (Escherichia coli (strain K12)), P0ABH0 (parent)
chain: B1 chain

Variants of: B1
Conditions: with ftsn_ecoli ftsN

Variant | effect of a mutation on the interaction
MIKATDRKLVVGLEIGTAKVAALVGEVLPDGMVNIIGVGSCPSRGMDKGGVNDLESVVKCVQRAIDQAELAADCQISSVYLALSGKHISCQNEIGMVPISEEEVTQEDVENVVHTAKSVRVRDEHRVLHVIPQEYAIDYQEGIKNPVGLSGVRMQAKVHLITCHNDMAKNIVKAVERCGLKVDQLIFAGLASSYSVLTEDERELGVCVVDIGGGTMDIAVYTGGALRHTKVIPYAGNVVTSDIAYAFGTPPSDAEAIKVRHGCALGSIVGKDESVEVPSVGGRPPRSLQRQTLAEVIEPRYTELLNLVNEEILQLQEKLRQQGVKHHLAAGIVLTGGAAQIEGLAACAQRVFHTQVRIGAPLNITGLTDYAQEPYYSTAVGLLHYGKESHLNGEAEVEKRVTASVGSWIKRLNSWLRKEF [M71A] | decreasing interaction strength
MIKATDRKLVVGLEIGTAKVAALVGEVLPDGMVNIIGVGSCPSRGMDKGGVNDLESVVKCVQRAIDQAPLMADCQISSVYLALSGKHISCQNEIGMVPISEEEVTQEDVENVVHTAKSVRVRDEHRVLHVIPQEYAIDYQEGIKNPVGLSGVRMQAKVHLITCHNDMAKNIVKAVERCGLKVDQLIFAGLASSYSVLTEDERELGVCVVDIGGGTMDIAVYTGGALRHTKVIPYAGNVVTSDIAYAFGTPPSDAEAIKVRHGCALGSIVGKDESVEVPSVGGRPPRSLQRQTLAEVIEPRYTELLNLVNEEILQLQEKLRQQGVKHHLAAGIVLTGGAAQIEGLAACAQRVFHTQVRIGAPLNITGLTDYAQEPYYSTAVGLLHYGKESHLNGEAEVEKRVTASVGSWIKRLNSWLRKEF [E69P] | decreasing interaction strength

Variants of: B2
Conditions: with ftsz_ecoli ftsZ

Variant | effect of a mutation on the interaction
MIKATDRKLVVGLEIGTAKVAALVGEVLPDGMVNIIGVGSCPSRGMDKGGVNDLESVVKCVQRAIDQAPLMADCQISSVYLALSGKHISCQNEIGMVPISEEEVTQEDVENVVHTAKSVRVRDEHRVLHVIPQEYAIDYQEGIKNPVGLSGVRMQAKVHLITCHNDMAKNIVKAVERCGLKVDQLIFAGLASSYSVLTEDERELGVCVVDIGGGTMDIAVYTGGALRHTKVIPYAGNVVTSDIAYAFGTPPSDAEAIKVRHGCALGSIVGKDESVEVPSVGGRPPRSLQRQTLAEVIEPRYTELLNLVNEEILQLQEKLRQQGVKHHLAAGIVLTGGAAQIEGLAACAQRVFHTQVRIGAPLNITGLTDYAQEPYYSTAVGLLHYGKESHLNGEAEVEKRVTASVGSWIKRLNSWLRKEF [E69P] | decreasing interaction strength
R286W | increasing interaction strength
